# Reference: the RNAGym collection of RNA variant scans (doi:10.7554/elife.80360)
# B1: Hairpin Ribozyme (parent)
# chain: GUCCUCUUUCACGUGCGCGUGAAAGAGAGAAGUGAACCAGAGAAACACACGUUGUGGUAUAUUACCUGGUA
# Variants of: B1
# Test: self-cleavage, relative activity (ratio to wild type); higher = more cleavage; co-transcriptional
row,Variant,self-cleavage
1,GUCCUCUAUCACGUGCGCGUGAAAGAGAGAUGUGAACCAGAGAAACACACGUUGUGGUAUAUUACCUGGUA [U8A A31U],0.135
2,GUCCUCUAUCACGUGCGCGUGAAAGAGAGAGGUGAACCAGAGAAACACACGUUGUGGUAUAUUACCUGGUA [U8A A31G],0.448
3,GUCCUCGUUCACGUGCGCGUGAAAGAGAGAAGUGAACCAGAGAAACACACGUCGUGGUAUAUUACCUGGUA [U7G U53C],0.84
4,GUCCUCUAUCACGUGCGCGUGAAAGAGAGGAGUGAACCAGAGAAACACACGUUGUGGUAUAUUACCUGGUA [U8A A30G],0.13
5,GUCCUCGUUCACGUGCGCGUGAAAGAGAGAAGUGAACCAGAGAAACACACGUUGUGGUACAUUACCUGGUA [U7G U60C],1.12
6,GUCCUCUAUCACGUGCGCGUGAAAGAGAGAAGUGAACCAGAGAAACACACGUUGUGGUAUAUUUCCUGGUA [U8A A64U],0.151
7,GUCCUCUAUCACGUGCGCGUGAAAGAGAGAAGUGAACCAGAGAAACACACGUUGUGGUAUAUUCCCUGGUA [U8A A64C],0.181
8,GUCCUCUAUCACGUGCGCGUGAAAGAGAGAAGUGAGCCAGAGAAACACACGUUGUGGUAUAUUACCUGGUA [U8A A36G],0.714
9,GUCCUCUAUCACGUGCGCGUGAAAGAGAGAAGUGAUCCAGAGAAACACACGUUGUGGUAUAUUACCUGGUA [U8A A36U],0.473
10,GUCCUCGUUCACGUGCGCGUGAAAGAGAGAAGUGAACCAGAGAAACACACGUUGGGGUAUAUUACCUGGUA [U7G U55G],0.215
11,GUCCUCUAUCACGUGCGCGUGAAAGAGAGAAGUGAACCAGAGAAACACACGUUGUGGUAUAUUACCUGGUC [U8A A71C],1.23
12,GUCCUCGUUCACGUGCGCGUGAAAGAGAGAAGUGAACCAGAGAAACACACGUUGUGGUAUAUUACCAGGUA [U7G U67A],0.238
13,GUCCUCGUUCACGUGCGCGUGAAAGAGAGAAGUGAACCAGAGAAACACACGUUGUGGUAUAUUACCCGGUA [U7G U67C],0.217
14,GUCCUCUAUCUCGUGCGCGUGAAAGAGAGAAGUGAACCAGAGAAACACACGUUGUGGUAUAUUACCUGGUA [U8A A11U],0.619
15,GUCCUCUAUCGCGUGCGCGUGAAAGAGAGAAGUGAACCAGAGAAACACACGUUGUGGUAUAUUACCUGGUA [U8A A11G],0.772
16,GUCCUCGUUCACGUGCGCGUGAAAGAGAGAAGUGAACCAGAGAAACACACGUUGUGGUAUAUCACCUGGUA [U7G U63C],0.143
17,GUCCUCUAUCACGUGCGCGUGAAAGCGAGAAGUGAACCAGAGAAACACACGUUGUGGUAUAUUACCUGGUA [U8A A26C],0.334
18,GUCCUCUAUCACGUGCGCGUGAAAGUGAGAAGUGAACCAGAGAAACACACGUUGUGGUAUAUUACCUGGUA [U8A A26U],0.421
19,GUCCUCUAUCACGUGCGCGUGAAAGAGAGAAGUGAACCAGCGAAACACACGUUGUGGUAUAUUACCUGGUA [U8A A41C],0.82

row,Variant,self-cleavage
1,GUCCUCUAUCACGUGCGCGUGAAAGAGAGAAGUGAACCAGUGAAACACACGUUGUGGUAUAUUACCUGGUA [U8A A41U],0.843
2,GUCCUCUAUCACGUGCGCGUGAAAGAGAGAAGUGAACCAGAGAAACACACGUUGUGGUAUUUUACCUGGUA [U8A A61U],0.191
3,GUCCUCUAUCACGUGCGCGUGAAAGAGAGAAGUGAACCAGAGAAACACGCGUUGUGGUAUAUUACCUGGUA [U8A A49G],0.366
4,GUCCUCUAUCACGUGCGCGUGAAAGAGAGAAGUGAACCAGAGAAACACCCGUUGUGGUAUAUUACCUGGUA [U8A A49C],0.165
5,GUCCUCUAUCACGUGCGCGUGAAAGAGAGAAGUGAACCAGAGAAACACUCGUUGUGGUAUAUUACCUGGUA [U8A A49U],0.148
6,GUCCUCUAUCACGUGCGCGUGAAAGAGAGAAGUGAACCAGAGAAACACACGUUGUGGUGUAUUACCUGGUA [U8A A59G],0.215
7,GUCCUCUAUCACGUGCGCGUGUAAGAGAGAAGUGAACCAGAGAAACACACGUUGUGGUAUAUUACCUGGUA [U8A A22U],0.891
8,GUCCUCUAUCACGUGCGCGUGAGAGAGAGAAGUGAACCAGAGAAACACACGUUGUGGUAUAUUACCUGGUA [U8A A23G],0.808
9,GUCCUCUAUCACGUGCGCGUGACAGAGAGAAGUGAACCAGAGAAACACACGUUGUGGUAUAUUACCUGGUA [U8A A23C],0.712
10,GUCCUCUAUCACGUGCGCGUGAAAGAGGGAAGUGAACCAGAGAAACACACGUUGUGGUAUAUUACCUGGUA [U8A A28G],0.684
11,GUCCUCUAUCACGUGCGCGUGAAAGAGAGAAGUGAACCAGAGGAACACACGUUGUGGUAUAUUACCUGGUA [U8A A43G],0.13
12,GUCCUCUAUCACGUGCGCGUGAAAGAGAGAAGUGAACCAGAGAAACGCACGUUGUGGUAUAUUACCUGGUA [U8A A47G],0.187
13,GUCCUCUAUCACGUGCGCGUGAAAGAGAGAAGUGAACCAGAGAGACACACGUUGUGGUAUAUUACCUGGUA [U8A A44G],0.173
14,GUCCUCUAUCACGUGCGCGUGAAAGAGAGAAGUGAACCAGAGACACACACGUUGUGGUAUAUUACCUGGUA [U8A A44C],0.213
15,GUCCUCGUUCACGUGCGCGUGAAAGAGAGAAGUGAACCAGAGAAACACACGUUGUGGUAUAUUACCUGGCA [U7G U70C],0.838
16,GUCCUCGUUCACGUGCGCGUGAAAGAGAGAAGUGAACCAGAGAAACACACGUUGUGGUAUAUUACCUGGGA [U7G U70G],0.917
17,GUCCUCUAUGACGUGCGCGUGAAAGAGAGAAGUGAACCAGAGAAACACACGUUGUGGUAUAUUACCUGGUA [U8A C10G],0.44
18,GUCCUCGUUCACGUGCGCGUGAAAGAGAGAAGUGAACCAGAGAAACACACGUUGUGGUAUAAUACCUGGUA [U7G U62A],0.101
19,GUCCUCGUUCACGUGCGCGUGAAAGAGAGAAGUGAACCAGAGAAACACACGUUGUGGUAUACUACCUGGUA [U7G U62C],0.0811
